The text below walks through data of publication PMC2415180 (BMC Biotechnology, 2008).

In series [1] the target is BChE/hSA fusion protein (recombinant human butyrylcholinesterase fused to human serum albumin) in the milk of transgenic mice (human) (UniProt P06276). As to the kind of experiment: SEC + native gel or EMSA. Background: A gel shift assay detects complexes by their altered migration in electrophoresis.
In series [2] the target is BChE/hSA fusion protein (recombinant human butyrylcholinesterase fused to human serum albumin) in the milk of transgenic goats (human) (UniProt P06276). As to the kind of experiment: SEC + native gel or EMSA.
The series “SEC” concerns the molecule itself. Description: SEC. In general terms: SEC sorts molecules by how far they enter the pores of the column.

As usually defined, the stoichiometry N is the number of molecules, sites or subunits per partner or assembly. With “BChE/hSA fusion protein (recombinant human butyrylcholinesterase fused to human serum albumin) in the milk of transgenic mice (from UniProt P06276 29-602; P02768 25-609) (enzyme)”, in series [1], the stoichiometry N amounted to 2.

Take “BChE/hSA fusion protein (recombinant human butyrylcholinesterase fused to human serum albumin) in the milk of transgenic goats (from UniProt P06276 29-602; P02768 25-609) (enzyme)”: the stoichiometry N in series [2] is 2.

B1: recombinant human butyrylcholinesterase produced transgenically in goat milk, tetramer-enriched preparation (>70% tetramer) (enzyme, UniProt P06276 29-602, looked up)
chain: EDDIIIATKNGKVRGMNLTVFGGTVTAFLGIPYAQPPLGRLRFKKPQSLTKWSDIWNATKYANSCCQNIDQSFPGFHGSEMWNPNTDLSEDCLYLNVWIPAPKPKNATVLIWIYGGGFQTGTSSLHVYDGKFLARVERVIVVSMNYRVGALGFLALPGNPEAPGNMGLFDQQLALQWVQKNIAAFGGNPKSVTLFGESAGAASVSLHLLSPGSHSLFTRAILQSGSFNAPWAVTSLYEARNRTLNLAKLTGCSRENETEIIKCLRNKDPQEILLNEAFVVPYGTPLSVNFGPTVDGDFLTDMPDILLELGQFKKTQILVGVNKDEGTAFLVYGAPGFSKDNNSIITRKEFQEGLKIFFPGVSEFGKESILFHYTDWVDDQRPENYREALGDVVGDYNFICPALEFTKKFSEWGNNAFFYYFEHRSSKLPWPEWMGVMHGYEIEFVFGLPLERRDNYTKAEEILSRSIVKRWANFAKYGNPNETQNNSTSWPVFKSTEQKYLTLNTESTRIMTKLRAQQCRFWTSFFPKVLEMTGNIDEAEWEWKAGFHRWNNYMMDWKNQFNDYTSKKESCVGL
notes: also called tetramer-enriched BChE; BChE produced transgenically (>70% tetramer)
Take B1: the “stoichiometry N” value in the series “SEC” was determined as 4.
